Patent US20150299263A1 (FACTOR THERAPEUTICS, published 2015)
Where no end group is shown, it is not given here.

B1: VN peptide P7 (LFSSEESNLGANNYDDYRMDWL) (peptide)
peptide: LFSSEESNLGANNYDDYRMDWL
notes: Free synthetic peptide (Mimotopes) in the migration and growth assays; The array carried only its overlapping 16-mers 7A-7C; also called Peptide 7; motif-7 mimic
B2: VN-peptide 1A (array grid A13) (peptide)
peptide: CQCDELCSYYQSCCTD
modifications: not fully specified (N-terminus); cysteine pairing not given here; also: free end capped by acetylation, immobilised on cellulose membrane (SPOT synthesis)
B3: VN-peptide 7A (array grid I7) (peptide)
peptide: LFSSEESNLGANNYDD
modifications: not fully specified (N-terminus); also: free end capped by acetylation, immobilised on cellulose membrane (SPOT synthesis)
B4: VN-peptide 6C (array grid G14) (peptide)
peptide: TRQPQFISRDWHGVPG
modifications: not fully specified (N-terminus); also: free end capped by acetylation, immobilised on cellulose membrane (SPOT synthesis)
B5: VN-peptide 8A (array grid J4) (peptide)
peptide: KYYRVNLRTRRVDTVD
modifications: not fully specified (N-terminus); also: free end capped by acetylation, immobilised on cellulose membrane (SPOT synthesis)
B6: VN-peptide 6B (array grid G13) (peptide)
peptide: SAGTRQPQFISRDWHG
modifications: not fully specified (N-terminus); also: free end capped by acetylation, immobilised on cellulose membrane (SPOT synthesis)
B7: VN-peptide 3A (array grid F5) (peptide)
peptide: VDAALALPAHSYSGRE
modifications: not fully specified (N-terminus); also: free end capped by acetylation, immobilised on cellulose membrane (SPOT synthesis)
B8: VN-peptide 8B (array grid J5) (peptide)
peptide: RVNLRTRRVDTVDPPY
modifications: not fully specified (N-terminus); also: free end capped by acetylation, immobilised on cellulose membrane (SPOT synthesis)
B9: VN-peptide 7C (array grid I9) (peptide)
peptide: SNLGANNYDDYRMDWL
modifications: not fully specified (N-terminus); also: free end capped by acetylation, immobilised on cellulose membrane (SPOT synthesis)
B10: VN-peptide 7B (array grid I8) (peptide)
peptide: SEESNLGANNYDDYRM
modifications: not fully specified (N-terminus); also: free end capped by acetylation, immobilised on cellulose membrane (SPOT synthesis)
B11: VN-peptide 3B (array grid F6) (peptide)
peptide: ALALPAHSYSGRERVY
modifications: not fully specified (N-terminus); also: free end capped by acetylation, immobilised on cellulose membrane (SPOT synthesis)
B12: VN-peptide 6A (array grid G12) (peptide)
peptide: GRTSAGTRQPQFISRD
modifications: not fully specified (N-terminus); also: free end capped by acetylation, immobilised on cellulose membrane (SPOT synthesis)
B13: VN-peptide 4B (array grid F13) (peptide)
peptide: QYWEYQFQHQPSQEEC
modifications: not fully specified (N-terminus); also: free end capped by acetylation, immobilised on cellulose membrane (SPOT synthesis)
B14: VN-peptide 5B (array grid G6) (peptide)
peptide: FAMMQRDSWEDIFELL
modifications: not fully specified (N-terminus); also: free end capped by acetylation, immobilised on cellulose membrane (SPOT synthesis)
B15: VN-peptide 2B (array grid C13) (peptide)
peptide: GIDSRPETLHPGRPQP
modifications: not fully specified (N-terminus); also: free end capped by acetylation, immobilised on cellulose membrane (SPOT synthesis)
B16: VN-peptide 5A (array grid G5) (peptide)
peptide: FEHFAMMQRDSWEDIF
modifications: not fully specified (N-terminus); also: free end capped by acetylation, immobilised on cellulose membrane (SPOT synthesis)
B17: VN-peptide 2A (array grid C12) (peptide)
peptide: KPEGIDSRPETLHPGR
modifications: not fully specified (N-terminus); also: free end capped by acetylation, immobilised on cellulose membrane (SPOT synthesis)
B18: VN-peptide 5D (array grid G8) (peptide)
peptide: DSWEDIFELLFWGRTS
modifications: not fully specified (N-terminus); also: free end capped by acetylation, immobilised on cellulose membrane (SPOT synthesis)
B19: VN-peptide 4A (array grid F12) (peptide)
peptide: KGKQYWEYQFQHQPSQ
modifications: not fully specified (N-terminus); also: free end capped by acetylation, immobilised on cellulose membrane (SPOT synthesis)
B20: VN-peptide 5C (array grid G7) (peptide)
peptide: MQRDSWEDIFELLFWG
modifications: not fully specified (N-terminus); also: free end capped by acetylation, immobilised on cellulose membrane (SPOT synthesis)

Target: T1, Human receptor grade IGF-II (insulin-like growth factor II) (human, UniProt P01344 25-91)
T1 construct: Bought recombinant protein, overlaid in solution on the VN-peptide array
Test: VN-peptide array, ligand overlay, immunoblot/ECL

T1 sequence (P01344 25-91 limits assumed): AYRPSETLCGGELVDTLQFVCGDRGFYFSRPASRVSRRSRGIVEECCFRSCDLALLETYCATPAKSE

binding result | Binder
binds | B1
binds | B2

Target: T1, Human receptor grade IGF-II …
Test: VN-peptide array, ligand overlay, immunoblot/ECL, TotalLab spot intensity
Description: (§1) Methanol or ethanol was used to enhance the rehydration of peptide spots that might be hydrophobic. The peptides spotted onto the membranes were activated by incubating in 3 mL of 70% ethanol for five mins. The membranes were subsequently washed three times, 10 minutes each, in 10 mL TBS (Tris Buffered Saline; 8 g NaCl, 0.2 g KCl and 6.1 g Tris Base into 1000 mL of milliQ water, pH 7) with gentle rocking. Membrane blocking was performed by incubating in 10 mL casein-based membrane blocking buffer (MBS; Sigma-Aldrich) overnight at 4° C. The following day, the membranes were washed twice, 10 minutes each, in 10 mL TBS-T (TBS+0.05% Tween-20; pH 7).
(§2) Ligands used to test binding to VN-peptides were IGFBP-3, IGFBP-5 and IGF-II. For ligand binding, four separate solutions of 1 μg/mL ligand in 10 mL MBS buffer were prepared and each membrane was incubated in one of the four ligand solutions overnight at 4° C., with gentle rocking. […] The following day, the membranes were washed three times, 10 minutes each, in 10 mL TBS-T.
(§3) The binding of the ligands to peptides within the membrane was detected using immunoblotting. The membranes were incubated overnight at 4° C. with 10 mL primary antibody solution (in MBS buffer) targeting the respective ligands. The antibodies used were anti-IGFBP-3 (1:10,000), anti-IGFBP-5 (1:10,000) and anti-IGF-II (1:5000) to detect IGFBP-3, IGFBP-5 and IGF-II respectively. The following day, the membranes were washed three times, 10 minutes each, in 10 mL TBS-T and incubated with 10 mL HRP-conjugated secondary IgG antibody diluted 1:15,000 in MBS buffer for 1 hour at room temperature. Following a further three washes of 10 minutes each, the peptide spots were visualized using ECL. The membranes were exposed onto x-ray films and developed using a film processor (AGFA CP 1000), or were imaged directly using the ChemiDoc™ XRS system (BioRad).

Intensity (against -ve control) | Binder
17 fold over negative controls | B3
1.5 fold over negative controls | B4
5 fold over negative controls | B5
0 fold over negative controls | B6
5 fold over negative controls | B7
17 fold over negative controls | B8
12 fold over negative controls | B9
18 fold over negative controls | B10
10 fold over negative controls | B11
13 fold over negative controls | Ac-LRTRRVDTVDPPYPRS (also: immobilised on cellulose membrane) [VN-peptide 8C (array grid J6)]
11 fold over negative controls | Ac-RRVDTVDPPYPRSIAQ (also: immobilised on cellulose membrane) [VN-peptide 8D (array grid J7)]
12 fold over negative controls | B12

Target: T2, Human receptor grade IGFBP-3 (insulin-like growth factor binding protein 3) (human, UniProt P17936 28-291)
T2 construct: Bought recombinant protein, overlaid in solution on the VN-peptide array
Test: as above
Description: as §1, §2, §3

T2 sequence (P17936 28-291 limits assumed): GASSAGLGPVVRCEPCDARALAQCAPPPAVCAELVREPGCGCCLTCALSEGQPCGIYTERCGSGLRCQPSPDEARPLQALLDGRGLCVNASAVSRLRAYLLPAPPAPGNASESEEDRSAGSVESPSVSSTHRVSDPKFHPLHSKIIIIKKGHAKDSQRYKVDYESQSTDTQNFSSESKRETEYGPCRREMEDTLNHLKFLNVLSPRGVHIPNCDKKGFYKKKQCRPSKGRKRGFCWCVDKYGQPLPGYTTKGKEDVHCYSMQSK

Intensity (against -ve control) | Binder
12 fold over negative controls | B13
1.5 fold over negative controls | B4
4.5 fold over negative controls | B14
2 fold over negative controls | B15
1.5 fold over negative controls | B16
5 fold over negative controls | B5
4 fold over negative controls | B17
1 fold over negative controls | B6
2.5 fold over negative controls | B18
1 fold over negative controls | B7
7 fold over negative controls | B8
6 fold over negative controls | B19
1 fold over negative controls | B11
4.5 fold over negative controls | B20
10 fold over negative controls | Ac-LRTRRVDTVDPPYPRS (also: immobilised on cellulose membrane) [VN-peptide 8C (array grid J6)]
10 fold over negative controls | B2
4 fold over negative controls | Ac-RRVDTVDPPYPRSIAQ (also: immobilised on cellulose membrane) [VN-peptide 8D (array grid J7)]
2 fold over negative controls | B12

Target: T3, Human receptor grade IGFBP-5 (insulin-like growth factor binding protein 5) (human, UniProt P24593 21-272)
T3 construct: Bought recombinant protein, overlaid in solution on the VN-peptide array
Test: as above
Description: as §1, §2, §3

T3 sequence (P24593 21-272 limits assumed): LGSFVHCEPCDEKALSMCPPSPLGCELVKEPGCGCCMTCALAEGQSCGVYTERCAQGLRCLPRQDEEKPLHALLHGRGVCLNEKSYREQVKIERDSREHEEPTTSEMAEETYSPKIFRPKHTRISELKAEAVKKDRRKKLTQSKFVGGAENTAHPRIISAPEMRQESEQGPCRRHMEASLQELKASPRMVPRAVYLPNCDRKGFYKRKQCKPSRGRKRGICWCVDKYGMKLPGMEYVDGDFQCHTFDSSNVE

Intensity (against -ve control) | Binder
5 fold over negative controls | B4
7 fold over negative controls | B15
3 fold over negative controls | B5
5 fold over negative controls | B17
1.5 fold over negative controls | B6
3 fold over negative controls | B7
7 fold over negative controls | B8
3 fold over negative controls | B11
9 fold over negative controls | Ac-LRTRRVDTVDPPYPRS (also: immobilised on cellulose membrane) [VN-peptide 8C (array grid J6)]
11 fold over negative controls | B2
8 fold over negative controls | Ac-RRVDTVDPPYPRSIAQ (also: immobilised on cellulose membrane) [VN-peptide 8D (array grid J7)]
7 fold over negative controls | B12
